Source: publication PMC4776307, “The Escherichia coli Cryptic Prophage Protein YfdR Binds to DnaA and Initiation of Chromosomal Replication Is Inhibited by Overexpression of the Gene Cluster yfdQ-yfdR-yfdS-yfdT” (Frontiers in Microbiology, 2016)

T1: biotin-tagged DnaA (bio-DnaA) (Escherichia coli, UniProt P03004 1-467, biotin (biotin-tagged))
T1 construct: DnaA, chromosomal replication initiator of Escherichia coli; also called bio-DnaA (Full); source: purified, as reported (Ishida et al., 2004)
T1 sequence (looked up): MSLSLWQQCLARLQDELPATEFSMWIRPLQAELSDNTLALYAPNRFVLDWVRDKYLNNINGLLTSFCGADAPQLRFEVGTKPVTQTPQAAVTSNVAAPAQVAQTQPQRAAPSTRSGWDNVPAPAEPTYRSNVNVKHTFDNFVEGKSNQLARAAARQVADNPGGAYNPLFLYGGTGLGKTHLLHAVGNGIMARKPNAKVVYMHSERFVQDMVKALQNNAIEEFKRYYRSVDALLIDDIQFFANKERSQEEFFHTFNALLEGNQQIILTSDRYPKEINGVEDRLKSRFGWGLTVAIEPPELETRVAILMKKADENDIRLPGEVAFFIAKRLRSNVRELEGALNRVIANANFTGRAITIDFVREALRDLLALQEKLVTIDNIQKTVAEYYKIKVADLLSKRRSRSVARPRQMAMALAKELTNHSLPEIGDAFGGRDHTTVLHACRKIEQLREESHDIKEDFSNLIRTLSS

B1: His-tagged YfdR (His-YfdR) (natural protein, Escherichia coli, UniProt P76514 1-178, looked up)
chain: MSFIKTFSGKHFYYDKINKDDIVINDIAVSLSNICRFAGHLSHFYSVAQHAVLCSQLVPQEFAFEALMHDATEAYCQDIPAPLKRLLPDYKRMEEKIDAVIREKYGLPPVMSTPVKYADLIMLATERRDLGLDDGSFWPVLEGIPATEMFNVIPLAPGHAYGMFMERFNDLSELRKCA
notes: YfdR of the cryptic prophage CPS-53 of Escherichia coli; amplified from pSSP with a forward primer that begins at the ATG of yfdR (nogu10) and nogu11, cloned NheI-EcoRI into pBAD/HisB; also called purified YfdR; source: E. coli MC1061 carrying pYfdR (pBAD/HisB), arabinose-induced, purified (Ni-NTA agarose)
B2: DiaA (natural protein, Escherichia coli, UniProt P66817 1-196, looked up)
chain: MQERIKACFTESIQTQIAAAEALPDAISRAAMTLVQSLLNGNKILCCGNGTSAANAQHFAASMINRFETERPSLPAIALNTDNVVLTAIANDRLHDEVYAKQVRALGHAGDVLLAISTRGNSRDIVKAVEAAVTRDMTIVALTGYDGGELAGLLGPQDVEIRIPSHRSARIQEMHMLTVNCLCDLIDNTLFPHQDD
notes: results and legends say only DiaA; also called His-DiaA; purified DiaA; source: purified
B3: DnaA (native, wild-type) (natural protein, Escherichia coli, UniProt P03004 1-467, looked up)
chain: T1 sequence (looked up)
notes: DnaA, chromosomal replication initiator of Escherichia coli; called native, intact, wild-type DnaA; Untagged; In the bio-oriC pull-downs it stood as DnaA complexes (multimers) formed on a biotin-tagged oriC DNA fragment; also called native DnaA; wild-type DnaA (WT); source: purified

Experiments:
Conditions in all cases: both partners purified
[1] = target: B3; test: pull-down; His-YfdR (10 pmol) with native DnaA or DnaA F46A in buffer R with 20 mM imidazole (20 uL; 2 mM ATP), on ice; Co2+ magnetic beads (Dynabeads); wash with 100 mM KCl and 50 mM imidazole; SDS-13% PAGE, silver staining; bead-bound DnaA subtracted
[2] = target: T1, biotin-tagged DnaA (bio-DnaA); test: pull-down; DiaA (10 pmol as monomer) with bio-DnaA (5 pmol) 5 min on ice, then purified His-YfdR for 10 min; streptavidin beads; SDS-PAGE, silver staining
[3] = target: T1, biotin-tagged DnaA (bio-DnaA); test: pull-down; bio-DnaA (5 pmol) first incubated with purified DiaA (10 pmol), then with protein extracts of cells carrying pQRST or pBAD18; streptavidin beads; SDS-PAGE, silver staining
[4] = target: B3; test: pull-down; DnaA (7.5 pmol) and bio-oriC (100 fmol) with His-DiaA (10 pmol as monomer) 5 min on ice, then His-YfdR for 10 min; streptavidin beads; SDS-15% PAGE, silver staining
[5] = target: T2, DnaB-DnaC complex (Escherichia coli, UniProt P0ACB0 1-471; P0AEF0 1-245); test: pull-down; DnaA (7.5 pmol) and bio-oriC (100 fmol) with DnaB-DnaC complex (7.5 pmol each) 5 min on ice, then His-YfdR for 10 min; streptavidin beads; SDS-12% PAGE, silver staining
T2 construct: DnaB replicative helicase of Escherichia coli (homohexamer); DnaC helicase loader of Escherichia coli; Formed beforehand from 7.5 pmol DnaB (as monomer) and 7.5 pmol DnaC; also called DnaB-DnaC complexes; source: DnaB and DnaC co-incubated on ice; copies: 6 +
T2 sequence (P0ACB0 whole entry, chain 1 of 2): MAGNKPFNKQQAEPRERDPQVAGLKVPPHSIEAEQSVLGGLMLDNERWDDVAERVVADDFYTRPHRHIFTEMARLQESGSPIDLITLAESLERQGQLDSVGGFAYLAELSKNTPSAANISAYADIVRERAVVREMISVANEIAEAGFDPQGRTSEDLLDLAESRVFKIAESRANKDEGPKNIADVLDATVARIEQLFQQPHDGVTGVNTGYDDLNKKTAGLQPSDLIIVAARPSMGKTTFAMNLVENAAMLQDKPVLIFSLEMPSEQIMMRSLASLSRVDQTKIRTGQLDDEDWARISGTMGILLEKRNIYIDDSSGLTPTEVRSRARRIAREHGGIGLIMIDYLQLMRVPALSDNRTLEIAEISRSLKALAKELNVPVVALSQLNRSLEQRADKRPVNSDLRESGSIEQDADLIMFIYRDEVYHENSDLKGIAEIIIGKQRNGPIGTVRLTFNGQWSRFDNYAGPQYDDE
T2 sequence (P0AEF0 whole entry, chain 2 of 2): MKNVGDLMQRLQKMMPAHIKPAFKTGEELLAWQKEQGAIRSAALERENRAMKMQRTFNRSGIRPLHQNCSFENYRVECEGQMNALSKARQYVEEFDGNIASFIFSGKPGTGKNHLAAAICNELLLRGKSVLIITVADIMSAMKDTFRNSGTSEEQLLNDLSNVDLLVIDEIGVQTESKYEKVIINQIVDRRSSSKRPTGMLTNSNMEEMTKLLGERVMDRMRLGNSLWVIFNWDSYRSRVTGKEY

B1: binds [1]; binds [2].

B2: binds [3]; binds [4].

B3: binds [5].
